Test: soluble on expression in E. coli; label from the status in PepcDB or PDB records

Sequence	soluble on expression in E. coli
MSNTQAERSIIGMIDMFHKYTRRDDKIDKPSLLTMMKENFPNFLSACDKKGTNYLADVFEKKDKNEDKKIDFSEFLSLLGDIATDYHKQSHGAAPCSGGSQ	not soluble
MINVLIIDDDAMVAELNRRYVAQIPGFQCCGTASTLEKAKEIIFNSDTPIDLILLDIYMQKENGLDLLPVLHNARCKSDVIVISSAADAATIKDSLHYGVVDYLIKPFQASRFEEALTGWRQKKMALEKHQYYDQAELDQLIHGSSSNEQDPRRLPKGLTPQTLRTLCQWIDAHQDYEFSTDELANEVNISRVSCRKYLIWLVNCHILFTSIHYGVTGRPVYRYRIQAEHYSLLKQYCQ	soluble
AHHHHHHGSTHIFPEINSISSLLLLYNGRVLANIHDRTIKKVIGFEAIFRDRVIRNDIKMLIELIRKGDEPLEIRGITIEDYAMNLIKGMMKFARPEE	not soluble
MSLIIDCHGHVSAPVELWAYKASLLAHRGSHGRGGVKVTDEQIIAAAHHKETWPDGHIELLHNHGTDMQLISPRTFQMMNSAKPARVVHWFCEEVNTLIHRQCTLIPEMFIPVAGLPQVAGEPIENVFAEMDRCVSMGFKGFLLNPDPYENGAEEAPPLGDRYWYPLYEKLCELDLPAHIHATGSQSERSPYSLHFINEETIATYNLCTSSVFDDFPQLKVVVSHGGGAIPYQLGRFESQSRRSKHLFSERMAKLYFDTVLYTEGALRLLIETVGPERCLFGSECPGVGSTIDPATGKQMDHIAPFIQKFDFLSDADKKLIFEDNARKVFNLEVEGHHHHHH	soluble
MHRTARNFAEIKPNLLFRKAKMARKSAEKYVAKKIQVPELQGEALFGLHSVLEAIRSGKRDFHSVFLKKAVENRADSDARIKEILSRIDELGIQKTLLTDDQLDRLTEFQLHNGICMDASALQFSNFEPKTVSIFVDKVLDPGNLGAIGRSAWYFGADGLGLVKGRGPKSITPAMIKSSCGALEHLPVQQFLNFNEFRDKIKAAGGELVATCDPGAAEKAGISAKSLDQWTPEKPVGIVLGDEGVGISRGILNLCDTVISISPVRKDGSNVTSLNVSVVAGILLHHISLQNRTN	not soluble
ASWSHPQFEKIEGRDTWRYAFEEAMTDVQGVYAQKFKEEIEANSDHEIQLFPYGTLGESADIMEQTQDGILQFVDQSPGFTGSLIPEAQVFFVPYLLPTDQDHLARFFKESKAINDMFKPLYADQGLELLNMFPEGEVAMTTKTPVTTCSDLDEVKFRVMTNPLLVESYKAFGATPTPLPWGEVYGGLQTNVIQGQENPTFFLYSTKIYEVTDYITYAGHNNFTTAVMANKDFYDGLSAEDQQLVQNAALAAYDHTVVYQQQAADTELAKIMEAKPEMQVTVLTDEQRSCFKEAAAEVEAKFIEMTGDSGAAILKQMKADLAATAN	soluble
MRGSHHHHHHGSMQILLANPRGFCAGVDRAISIVENALAIYGAPIYVRHEVVHNRYVVDSLRERGAIFIEQISEVPDGAILIFSAHGVSQAVRNEAKSRDLTVFDATCPLVTKVHMEVARASRRGEESILIGHAGHPEVEGTMGQYSNPEGGMYLVESPDDVWKLTVKNEEKLSFMTQTTLSVDDTSDVIDALRKRFPKIVGPRKDDICYATTNRQEAVRALAEQAEVVLVVGSKNSSNSNRLAELAQRMGKRAFLIDDAKDIQEEWVKEVKCVGVTAGASAPDILVQNVVARLQQLGGGEAIPLEGREENIVFEVPKELRVDIREVD	soluble
FMQEPEAIETALHRLSDHDLIVIQVLDPTEKVLPLQGNSKLVDLETGEEIRTYISDNFKERYTRKLDDHSARIKKTCMKVGAEFYTFTTDTPVFNAFYNTIRRRRR	not soluble
MGSDKIHHHHHHMKLFTSCKESVKNSIDTKYFSIAHLHSEEETMSIHIHDCYEIYYSISGENQFLIDNKLYYINPGNLFAVNEFESHYVSQVNNSTHERIVISIHPDFLKSLCTSKTNLTYCFKHRGSNFCHKVSLNKEQQSRFMYFINKIIGSHGFGADMIEYASFIELMIFLTSLFINNGESLTPIYKYSNQIEEIIRYINDNVTNDITVKHLAEHFFLSESYICRIFKLSTGTTINKYITARRISMAKALLSNGSSINDVYVKCGFNDYSNFLKSFKKAVGISPKKYSTFSTS	not soluble
PVDCSVIVVNKQTKDYAESVGRKVRDLGMVVDLIFLNTEVSLSQALEDVSRGGSPFAIVITQQHQIHRSCTVNIMFGTPQEHRNMPQADAMVLVARNYERYKNECREKEREEIARQA	soluble
DGLEGMDDPDATSKKVVPLGVEIYEINGPFFFGVADRLKGVLDVIEETPKVFILRMRRVPVIDATGMHALWEFQESCEKRGTILLLSGVSDRLYGALNRFGFIEALGEERVFDHIDKALAYAKLLVETAEER	not soluble
GAMDPEFMSTPLPAIVPAARKATAAVIFLHGLGDTGHGWAEAFAGIRSSHIKYICPHAPVRPVTLNMNVAMPSWFDIIGLSPDSQEDESGIKQAAENIKALIDQEVKNGIPSNRIILGGFSQGGALSLYTALTTQQKLAGVTALSCWLPLRASFPQGPIGGANRDISILQCHGDCDPLVPLMFGSLTVEKLKTLVNPANVTFKTYEGMMHSSCQQEMMDVKQFIDKLLPPID	soluble
MLIVLSLGGSILAKNLDPDRFLKYANALRDISKKHTLLVVTGGGEAARDYIGAARAMGADEVTCDYIGIEITRLNARLLISALGHDAYPEIPSNYPEASKAMTSGKVVVMGGVTPGQTTDAVASILAEYLRADLLTIATSIDGVYSSDPNCDPCAVKYEKISPEKLINIVMAIEMKAGSKSPVDPVAAKIIERCKLDALVMDARNPDLLVEVICGEAAKKSPVSCGTWITAKKMAGDPLEHHHHHH	soluble
RRIGKVNLRHNRGFLTPELKRNFLRYTLFYVVASIGSKLSSRLDLFMVSSLDKGGLDSGGIFSIAFYMVAVVEIPSRSLLSVSSPLMADAMKRNDLVKADELFKRVSLHQ	not soluble
MAHHHHHHMFNYRREVLLDLWRKMPEAAACETVAPPEAVKGEEKRQQSVVKTQLDWLSEELKLSSSIIQSDYKVYAAFVHRRWVFMQLRRLAESALGNVGKRSKPAAPAGCQLGECAAAGEFDLPEEVLFWAKALLKEKRQGDALLAMDERNFHAWEFRRWVMYQLGQMEDLFVQSSIQFGPAVVGIKEREFASYMNGSAKSDRPRDLFFTPTEVKELNFTSAAVRRNFSNYSAWHQRGFIMQGALRRLQQRQWREEEADNNLRDGMLSQAWGQLEEDLTLLTTAIYCDPLDQSAWYYAKFLIHASKQLTALPFASTAVPIDITAKLDEVCLDLVGEERRLGEDMETYWPYLHLATSLLTSIKKSNDGNSSDVISDRQSALKLAREVWAALQPQGRHVNGDDDCIKCLQELCAHLTTADPLRAGMYKYFLSEVTTA	not soluble
MFNTTPINIDKWLKENEGLLKPPVNNYCLHKGGFTVMIVGGPNERTGYHINPTPEWFYQKKGSMLLKVVDETDAEPKFIDIIINEGDSYLLPGNVPHSPVRFADTVGIVVEQDRPGGENDKIRWYCSHCRQVVHESELQMLDLGTQVKEAILDFENDVEKRTCFHCKTLNYARPQSN	soluble
MMTNPKVIILGGRFGGLQTAYELKRYLKGKIDIKLIERNRYIYFRPALPHVAIGLENPDDLRIDISEALSAKGIEYIQGTVTRIDPAKNTVEYNKEGAGPSKEKYDYLVIALGSHLATELITGFEKFGSSVCEADLALSMWNKLNAFKGGNITLGSAKFIQDNKNRPTNNPDAYAPLLESACEGPVYEMSIMLYDYFKAKGMLDKVKMTVYSPGKYLSDLSETNRATVAAMYKGMDIDIVDNFVLKEVTEKEVISEDGKRLPSDLSFILPPYMGQQMVKDAGLGDEAGFVLTDTNMKSVKYDNVYAVGDINALIVPKMAALAVKSARIAAANIANNLGNKVPIEVYDPKIVCIADDPYGKYAVAIVDSTAYGGNISEAVPSAANHLKKSLFTRYFLWSKGDLAMDKYLTSWLEHHHHHH	not soluble
MEGGMKRVVLAFGTRPEATKMAPVYLALRGIPGLKPLVLLTGQHREQLRQALSLFGIQEDRNLDVMQERQALPDLAARILPQAARALKEMGADYVLVHGDTLTTFAVAWAAFLEGIPVGHVEAGLRSGNLKEPFPEEANRRLTDVLTDLDFAPTPLAKANLLKEGKREEGILVTGQTGVDAVLLAAKLGRLPEGLPEGPYVTVTMHRRENWPLLSDLAQALKRVAEAFPHLTFVYPVHLNPVVREAVFPVLKGVRNFVLLDPLEYGSMAALMRASLLLVTDSGGLQEEGAALGVPVVVLRNVTERPEGLKAGILKLAGTDPEGVYRVVKGLLENPEELSRMRKAKNPYGDGKAGLMVARGVAWRLGLGPRPEDWLP	soluble

Source: the DeepSol protein solubility set
